Measurements reported in paper PMC11301080.

Biological target: recombinant HIV-1 gp120 ZM109 (HIV-1)
Experiment: BLI

Substance	Kd [nM]
recombinant FimH protein, lectin domain only (from UniProt P08191 22-179) (domain or fragment)	360
Streptococcal Siglec-like lectin SLBR-N, GST-tagged (domain or fragment)	40.3
